Data published in patent US8147838B2, “Peptide” (priority 2005, dated 2012).

Assays:
Conditions in all cases: percent of positive control peptide binding; peptide at 1.11×10^−5M
[1] = target: MHC class I allele A*0101 (A1) (Homo sapiens, UniProt P04439, A114D/A174V/A182V/D101N/D185E/E176A/E190D/L180R/Q94H/R68K/S129P/T187R/V100A/V91M/W191G); assay: iTopia peptide binding assay, A*0101
Protocol: (§1) The 9 mers were tested for Peptide Binding, Off Rate and Affinity using iTopia Epitope Discovery System in accordance with the manufacturer's instructions. Briefly, 96 well microtitre plates coated with MHC molecules representing different MHC alleles are used to identify candidate peptides. […] Determinations are performed in duplicate using an ELISA plate reader and included allele specific positive controls.
(§2) i) Peptide Binding—This assay measures the ability of individual peptides to bind to the MHC molecules under standardized optimal binding conditions. The assay is performed for all the test peptides across the selected MHC alleles. The test peptides identified as “binders” are characterized further in terms of affinity and dissociation experiments.
(§3) Following a period of binding under optimal conditions, excess antibody is removed and a measurement of total fluorescence taken (D).
(§4) The binding of the test peptides to the MHC molecules was performed at 1.11×10^−5M of peptide under optimal, standardised test conditions. A control peptide was run in parallel on the same plate and at the same concentration as the test peptides.
(§5) The level of binding is expressed as a percent of positive control peptide binding for each allele.

[2] = target: MHC class I allele A*0201 (A2) (Homo sapiens, UniProt P04439, D140Y/D185E/D98H/E176V/E277Q/G131W/G231S/I119V/I121R/I166T/I218V/L300P/L318F/N151K/N90K/P208A/P217A/Q86G/Q94H/R138H/R169H/T345S); assay: iTopia peptide binding assay, A*0201
Protocol: as §1, §2, §3, §4, §5

[3] = target: MHC class I allele A*0301 (A3) (Homo sapiens, UniProt P04439); assay: iTopia peptide binding assay, A*0301
Protocol: as §1, §2, §3, §4, §5

[4] = target: MHC class I allele B*0702 (B7) (Homo sapiens, UniProt P01889); assay: iTopia peptide binding assay, B*0702
Protocol: as §1, §2, §3, §4, §5

Sequence | Peptide binding, MHC Class I Molecule A*0101 [1] | Peptide binding, MHC Class I Molecule A*0201 [2] | Peptide binding, MHC Class I Molecule A*0301 [3] | Peptide binding, MHC Class I Molecule B*0702 [4]
AALLAGRAL [Peptide 101] | 1 % of control | 38 % of control | 0 % of control | 59 % of control
AALNLSGSR [Peptide 61] | 3 % of control | 6 % of control | 13 % of control | 3 % of control
ACRDHMEGY [Peptide 196] | 3 % of control | 8 % of control | 4 % of control | 7 % of control
ADMVTWLKE [Peptide 152] | 0 % of control | 6 % of control | 4 % of control | 8 % of control
AELQGLPHI [Peptide 140] | 0 % of control | 9 % of control | 1 % of control | 0 % of control
AFEHLPSLR [Peptide 69] | 1 % of control | 11 % of control | 11 % of control | 0 % of control
AFSGSNASV [Peptide 81] | 2 % of control | 55 % of control | 2 % of control | 14 % of control
AGAFEHLPS [Peptide 68] | 6 % of control | 10 % of control | 3 % of control | 7 % of control
AGRALQGLR [Peptide 103] | 0 % of control | 2 % of control | 2 % of control | 1 % of control
ASAVSAQPP [Peptide 25] | 2 % of control | 5 % of control | 0 % of control | 0 % of control
CAYPEKMRN [Peptide 162] | 0 % of control | 11 % of control | 4 % of control | 3 % of control
CSRGPAAGD [Peptide 3] | 0 % of control | 3 % of control | 5 % of control | 3 % of control
DCDPILPPS [Peptide 172] | 0 % of control | 0 % of control | 3 % of control | 0 % of control
DCHMADMVT [Peptide 150] | 0 % of control | 7 % of control | 3 % of control | 5 % of control
DEVRAGAFE [Peptide 66] | 6 % of control | 9 % of control | 7 % of control | 12 % of control
DLDCDPILP [Peptide 171] | 0 % of control | 0 % of control | 4 % of control | 3 % of control
DNALKVLHN [Peptide 134] | 1 % of control | 5 % of control | 0 % of control | 0 % of control
DPILPPSLQ [Peptide 173] | 0 % of control | 7 % of control | 4 % of control | 0 % of control

Sequence | Peptide binding, MHC Class I Molecule A*0101 [1] | Peptide binding, MHC Class I Molecule A*0201 [2] | Peptide binding, MHC Class I Molecule A*0301 [3] | Peptide binding, MHC Class I Molecule B*0702 [4]
DRLTCAYPE [Peptide 160] | 0 % of control | 6 % of control | 5 % of control | 3 % of control
ECSEAARTV [Peptide 34] | 2 % of control | 4 % of control | 0 % of control | 0 % of control
EDERQNRSF [Peptide 94] | 0 % of control | 2 % of control | 4 % of control | 4 % of control
EGYHYRYEI [Peptide 199] | 0 % of control | 9 % of control | 0 % of control | 4 % of control
ERQNRSFEG [Peptide 95] | 0 % of control | 1 % of control | 1 % of control | 1 % of control
ESLHLEDNA [Peptide 131] | 2 % of control | 8 % of control | 0 % of control | 0 % of control
ETEVVQGKD [Peptide 156] | 0 % of control | 1 % of control | 3 % of control | 1 % of control
GAIFLLVLY [Peptide 184] | 0 % of control | 5 % of control | 5 % of control | 0 % of control
GKDRLTCAY [Peptide 159] | 3 % of control | 6 % of control | 6 % of control | 4 % of control
HLESLHLED [Peptide 130] | 4 % of control | 3 % of control | 2 % of control | 2 % of control
HNPLADLSP [Peptide 76] | 5 % of control | 7 % of control | 3 % of control | 5 % of control
IFLLVLYLN [Peptide 185] | 0 % of control | 8 % of control | 0 % of control | 2 % of control
INADPRLTN [Peptide 203] | 0 % of control | 3 % of control | 1 % of control | 4 % of control
IRVFLDNNP [Peptide 144] | 0 % of control | 4 % of control | 3 % of control | 5 % of control
IVPPEDERQ [Peptide 92] | 6 % of control | 12 % of control | 3 % of control | 3 % of control
KGIKKWMHN [Peptide 190] | 3 % of control | 14 % of control | 3 % of control | 6 % of control
LCECSEAAR [Peptide 33] | 3 % of control | 8 % of control | 0 % of control | 0 % of control
LDNNPWVCD [Peptide 146] | 0 % of control | 0 % of control | 2 % of control | 3 % of control
